Experimental data: PMC12444171, “Chromatin remodeler BRD9 represses transcription of PPARα target genes, including CPT1A to suppress lipid metabolism” (Journal of Lipid Research, 2025)

Target: T1, BRD7-His (bromodomain-containing protein 7 with His tag) (human, UniProt Q9NPI1 1-651)
T1 construct: Bromodomain-containing protein 7, human; source: HEK293T, transfected, in lysate; for the pull-down purified from HEK293T cell lysates
T1 sequence (looked up): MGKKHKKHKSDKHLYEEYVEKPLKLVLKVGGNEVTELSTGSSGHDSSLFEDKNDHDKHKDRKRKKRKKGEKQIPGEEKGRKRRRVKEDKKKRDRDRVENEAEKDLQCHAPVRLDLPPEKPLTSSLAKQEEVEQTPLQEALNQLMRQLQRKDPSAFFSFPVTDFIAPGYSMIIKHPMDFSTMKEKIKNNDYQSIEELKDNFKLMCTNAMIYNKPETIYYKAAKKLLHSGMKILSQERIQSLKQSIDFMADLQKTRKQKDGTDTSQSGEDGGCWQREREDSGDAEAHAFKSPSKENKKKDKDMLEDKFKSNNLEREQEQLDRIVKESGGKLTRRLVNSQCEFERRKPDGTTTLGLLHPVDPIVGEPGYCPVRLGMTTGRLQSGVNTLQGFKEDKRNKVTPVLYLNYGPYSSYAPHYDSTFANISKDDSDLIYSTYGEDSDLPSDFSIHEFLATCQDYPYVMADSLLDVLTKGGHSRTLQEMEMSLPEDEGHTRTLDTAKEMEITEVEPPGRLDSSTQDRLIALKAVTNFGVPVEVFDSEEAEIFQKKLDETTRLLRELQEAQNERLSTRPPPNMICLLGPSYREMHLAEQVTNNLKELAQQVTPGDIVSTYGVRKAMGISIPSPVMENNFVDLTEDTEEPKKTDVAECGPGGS
Assay: co-IP; HEK293T cells co-transfected with FLAG-PPARα and BRD7-His or BRD9-His; lysate (0.3 M NaCl, 0.5% NP-40, pH 8.0) on anti-His tag antibody-Dynabeads Protein G, 2 h at room temperature; Western blot; in Fig. 5C the cells were treated with 30 μM WY-14643 and/or 40 μM BI-9564 for 48 h (interaction markedly attenuated)
Details: partners not purified

- binding result: binds
B1: FLAG-PPARα (peroxisome proliferator-activated receptor α with 3×FLAG) (natural protein, human, UniProt Q07869 1-468, looked up)
chain: MVDTESPLCPLSPLEAGDLESPLSEEFLQEMGNIQEISQSIGEDSSGSFGFTEYQYLGSCPGSDGSVITDTLSPASSPSSVTYPVVPGSVDESPSGALNIECRICGDKASGYHYGVHACEGCKGFFRRTIRLKLVYDKCDRSCKIQKKNRNKCQYCRFHKCLSVGMSHNAIRFGRMPRSEKAKLKAEILTCEHDIEDSETADLKSLAKRIYEAYLKNFNMNKVKARVILSGKASNNPPFVIHDMETLCMAEKTLVAKLVANGIQNKEAEVRIFHCCQCTSVETVTELTEFAKAIPGFANLDLNDQVTLLKYGVYEAIFAMLSSVMNKDGMLVAYGNGFITREFLKSLRKPFCDIMEPKFDFAMKFNALELDDSDISLFVAAIICCGDRPGLLNVGHIEKMQEGIVHVLRLHLQSNHPDDIFLFPKLLQKMADLRQLVTEHAQLVQIIKKTESDAALHPLLQEIYRDMY
modifications: acetylated lysine residue(s), positions not given
notes: the sites are not mapped; source: HEK293T, transfected (pcDNA3.1), in lysate; for the pull-down captured from lysate on anti-FLAG antibody-Dynabeads Protein G and washed; not shown: 3×FLAG, N-terminal, kept
